{"source": "paper PMC9918506", "about": "“Structural insights into pathogenic mechanism of hypohidrotic ectodermal dysplasia caused by ectodysplasin A variants” (Nature Communications, 2023)", "parents": {"B1": {"name": "EDA·A1 TNF homology domain (EDA·A1THD, residues 233–391), wild type [human] / EDAR cysteine-rich domains (EDAR_(CRDS), residues 30–150), MBP tag removed [human] (parent)", "chain 1": "GPSGAADKAGTRENQPAVVHLQGQGSAIQVKNDLSGGVLNDWSRITMNPKVFKLHPRSGELEVLVDGTYFIYSQVEVYYINFTDFASYEVVVDEKPFLQCTRSIETGKTNYNTCYTAGVCLLKARQKIAVKMVHADISINMSKHTTFFGAIRLGEAPAS", "chain 2": "GGSGGSGGSGGSNCGENEYYNQTTGLCQECPPCGPGEEPYLSCGYGTKDEDYGCVPCPAEKFSKGGYQICRRHKDCEGFFRATVLTPGDMENDAECGPCLPGYYMLENRPRNIYGMVCYSCLLAPPNTKECVG"}}}
{"variants_of": "B1", "assay": "SPR", "settings": "with EDAR cysteine-rich domains (EDAR_(CRDS), residues 30–150), 50, 25, 12.5, 6.25, 3.125 nM", "units": {"Kd": "nM"}}
{"variant": "chain 1 GPSGAADKAGTRENQPAVVHLQGQGSAIQVKNDLSGGVLNDWSCITMNPKVFKLHPRSGELEVLVDGTYFIYSQVEVYYINFTDFASYEVVVDEKPFLQCTRSIETGKTNYNTCYTAGVCLLKARQKIAVKMVHADISINMSKHTTFFGAIRLGEAPAS", "note": "[chain 1 R44C]", "Kd": 35.9}
